Data set [1] deals with the molecule itself. The data set is described as follows: FPLC gel filtration of purified protein (homodimerization). In general terms: In gel filtration, larger molecules generally elute earlier.
Data set [2] concerns the molecule itself. The data set is described as follows: FPLC gel filtration, Superdex 200 (self-association). The method, then:
Gel filtration chromatography was performed using a Superdex 200 10/300 GL column (Amersham Biosciences), equilibrated with 40 mm Tris-HCl (pH 7.5), 150 mm NaCl buffer at a flow rate of 0.4 ml/min. Apparent molecular masses were calculated by interpolating an elution volume versus log (molecular mass) calibration curve using ferritin (440 kDa), catalase (232 kDa), aldolase (158 kDa), BSA (67 kDa), ovalbumin (43 kDa), chymotrypsinogen A (25 kDa), and ribonuclease A (13.7 kDa). 200 uL of each fluorescent protein at concentration 1 mg/ml were loaded.

B1: mKate2 protein (other)
chain: MVSELIKENMHMKLYMEGTVNNHHFKCTSEGEGKPYEGTQTMRIKAVEGGPLPFAFDILATSFMYGSKTFINHTQGIPDFFKQSFPEGFTWERVTTYEDGGVLTATQDTSLQDGCLIYNVKIRGVNFPSNGPVMQKKTLGWEASTETLYPADGGLEGRADMALKLVGGGHLICNLKTTYRSKKPAKNLKMPGVYYVDRRLERIKEADKETYVEQHEVAVARYCDLPSKLGHR
notes: Engineered far-red fluorescent protein derived from Entacmaea quadricolor eqFP578; The partner is a second copy of the same protein (self-association / dimerization seen by FPLC)
With B1, in data set [1], the binding result is reported as “binds”.

B2: mKate2.7C (other)
chain: MVSELIKENMPMKLYMEGTVNNHHFKCTSEGEGKPYEGTQTMRIKVVEGGPLPFAFDILATSFMYGSRTFIKHPPGIPDFFKQSFPEGFTWERVTTYEDGGVLTATQDTSLQDGCLIYNVKVRGVNFPANGPVMQKKTLGWEASTETMYPADGGLEGACDMALKLVGGGHLICNLETTYRSKKPATNLKMPGVYNVDHRLERIKEADDETYVEQHEVAVARYSTGGAGDGGK
notes: A vector His tag from pQE30 is probably present but not described; It was tested for self-association by FPLC
In the case of B2, in data set [2], the binding result is on record as “no binding (tested: >1 mg/ml)”.

B3: mKate2.5 (other)
chain: MVSELIKENMHMKLYMEGTVNNHHFKCTSEGEGKPYEGTQTMRIKVVEGGPLPFAFDILATSFMYGSKTFINHPQGIPDFFKQSFPEGFTWERVTTYEDGGVLTATQDTSLQDGCLIYNVKIRGVNFPANGPVMQKKTLGWEASTETLYPADGGLEGACDMALKLVGGGHLICNLETTYRSKKPAKNLKMPGVYNVDRRLERIKEADNETYVEQHEVAVARYSTGGAGDGGK
notes: as for B2
As for B3, the binding result in data set [2] is on record as “no binding (tested: >1 mg/ml)”.
